Measurements reported in patent publication EP4705353A2 (dated 2026).

Assays:
[1] = molecular target: T1, full length human B7H3 expressed on CHOK1 cells (human, UniProt Q5ZPR3 29-534); assay: FACS, VH titrated with or without 20 nM Enoblituzumab as competitor
T1 construct: whole, on cells; also called B7H3/CHOK1; B7H3/CHOK1 full length; not shown: C-terminal flag and Myc tags from the pCMV6-Entry vector
T1 sequence (looked up): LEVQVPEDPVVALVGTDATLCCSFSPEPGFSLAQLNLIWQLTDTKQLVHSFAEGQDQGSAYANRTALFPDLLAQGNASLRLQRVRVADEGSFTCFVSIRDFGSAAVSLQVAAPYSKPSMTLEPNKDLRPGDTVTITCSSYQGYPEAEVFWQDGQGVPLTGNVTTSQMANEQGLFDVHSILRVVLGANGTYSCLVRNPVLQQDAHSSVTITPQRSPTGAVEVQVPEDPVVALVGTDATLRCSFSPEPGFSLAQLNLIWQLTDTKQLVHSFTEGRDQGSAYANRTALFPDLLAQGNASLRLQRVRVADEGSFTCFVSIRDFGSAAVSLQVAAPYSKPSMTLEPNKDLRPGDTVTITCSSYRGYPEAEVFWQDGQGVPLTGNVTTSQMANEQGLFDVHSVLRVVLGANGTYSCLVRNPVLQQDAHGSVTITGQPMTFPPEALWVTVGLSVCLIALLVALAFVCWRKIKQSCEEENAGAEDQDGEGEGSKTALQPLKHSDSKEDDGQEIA

[2] = molecular target: T2, human B7H3-Fc recombinant protein (human, UniProt Q5ZPR3 29-466, limits assumed); assay: ELISA, human B7H3-Fc coated at 2 ug/mL, anti-Flag HRP detection; footnote of Table 5: NA: low binding to B7H3 protein
T2 construct: Recombinant Fc fusion; also called human B7H3-Fc (full length); B7H3 recombinant protein; not shown: Fc part
T2 sequence (looked up): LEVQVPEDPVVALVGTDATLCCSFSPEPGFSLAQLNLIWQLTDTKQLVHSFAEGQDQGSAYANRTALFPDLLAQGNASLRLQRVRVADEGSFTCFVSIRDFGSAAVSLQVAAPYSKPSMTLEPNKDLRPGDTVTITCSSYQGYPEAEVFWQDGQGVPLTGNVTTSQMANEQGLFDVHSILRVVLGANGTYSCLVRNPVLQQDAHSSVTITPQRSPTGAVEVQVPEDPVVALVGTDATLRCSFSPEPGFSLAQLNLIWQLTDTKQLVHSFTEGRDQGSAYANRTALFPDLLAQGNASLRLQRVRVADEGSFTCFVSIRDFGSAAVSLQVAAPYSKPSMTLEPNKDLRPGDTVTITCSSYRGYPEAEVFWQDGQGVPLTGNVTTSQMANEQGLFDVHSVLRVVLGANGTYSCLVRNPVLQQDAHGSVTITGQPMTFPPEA

B1: BH-01 anti-B7H3 VH antibody (VHH)
VHH: QVTLKESGPTVVNPTQTLTLTCTFSGFSLTTSPVGVGWLRQPPGQALEWLALIYWDDDKRYSPSLKSRLTITKNTSRNQVVLTMMNMDPVDTATYYCAHRVYYTGNWDGGSFDYWGQGTLVTVSS
notes: Human heavy chain-only (VH) antibody made in E. coli with a C-terminal flag and 6xHis tag; also called BH-1; not shown: C-terminal flag and 6xHis tag
B1: binds [1].

B2: BH-03 anti-B7H3 VH antibody (VHH)
VH: QVQLVESGGGVVQPGRSPRLSCAASGFTFSSYAMHWVRQAPGKGLEWVAVISYDGSNKYYADSVKGRFTISRDNSKNTLYLQMNSLRAEDTAVYYCARDLARLVAGLDYWGQGTLVTVSS
notes: Human heavy chain-only (VH) antibody made in E. coli with a C-terminal flag and 6xHis tag; not shown: C-terminal flag and 6xHis tag
B2: binds [1]; binds [2].
